Experimental data as given in patent US20190352335A1, “BRAIN TARGETING LONG-ACTING PROTEIN CONJUGATE” (HANMI PHARM. CO., LTD., priority 2016, published 2019).

Test: In vitro specific enzyme activity of idursulfase conjugate (4MU fluorescence)
Assay type: biochemical
Conditions: substrate 4MU-α-idopyraA-2, 37° C. 4 hours, then α-iduronidase 37° C. 24 hours; FIG. 5
Method: To examine the presence of any change in specific activity of idursulfase according to the preparation of idursulfase-10 K PEG-Fc-BTP22 conjugate, an in vitro experiment for specific activity of enzymes was performed, 4-Methylumbelliferyl α-L-idopyranosiduronic acid-2-sulfate sodium salt (4MU-α-idopyraA-2), which is known as an enzyme substrate for idursulfase, was reacted with idursulfase β and IDS-Fc-BTP22 at 37° C. for 4 hours, and then, reacted with α-iduronidase, which is a secondary reaction enzyme, at 37° C. for 24 hours. The enzyme activity of 4-methylumbelliferone (4 MU), the final product, was measured by the measurement of the fluorescence of the corresponding substance (FIG. 5).
In particular, the values of enzyme activity were calculated in terms of specific activity per converted rate of weight (μg).

B1: idursulfase (protein, UniProt P22304 34-455; P22304 456-550, looked up)
Iduronate 2-sulfatase 42 kDa …: TDALNVLLIIVDDLRPSLGCYGDKLVRSPNIDQLASHSLLFQNAFAQQAVCAPSRVSFLTGRRPDTTRLYDFNSYWRVHAGNFSTIPQYFKENGYVTMSVGKVFHPGISSNHTDDSPYSWSFPPYHPSSEKYENTKTCRGPDGELHANLLCPVDVLDVPEGTLPDKQSTEQAIQLLEKMKTSASPFFLAVGYHKPHIPFRYPKEFQKLYPLENITLAPDPEVPDGLPPVAYNPWMDIRQREDVQALNISVPYGPIPVDFQRKIRQSYFASVSYLDTQVGRLLSALDDLQLANSTIIAFTSDHGWALGEHGEWAKYSNFDVATHVPLIFYVPGRTASLPEAGEKLFPYLDPFDSASQLMEPGRQSMDLVELVSLFPTLAGLAGLQVPPRCPVPSFHVELCREGKNLLKHFRFRDLEEDPYLPG
Iduronate 2-sulfatase 14 kDa …: NPRELIAYSQYPRPSDIPQWNSDKPSLKDIKIMGYSIRTIDYRYTVWVGFNPDEFLANFSDIHAGELYFVDSDPLQDHNMYNDSQGGDLFQLLMP
notes: purified type of iduronate-2-sulfatase (Shire, Ireland), approximately 72 kDa
enzyme activity (specific activity per weight of idursulfase part): 23.4 ± 1.94 nmol/min/µg
